Results as given in patent US20020197616A1 (REGENTS OF THE UNIVERSITY OF MICHIGAN, published 2002).

What follows are binders tested against T1, Nod2 (wild-type, HA-tagged) (human, UniProt Q9HC29 1-1040) (assay: co-immunoprecipitation, HEK293T extracts).
T1 construct: Expressed in HEK293T cells and tested in cell extracts by co-immunoprecipitation; also called Nod2a; wt Nod2; not shown: HA tag; the plasmid is named both pcDNA3-Nod2-HA and pcDNA3-HA-Nod2, so the end that carries the ta
Excerpt: Proteins co-immunoprecipitated with anti-HA antibody were detected with anti-Flag antibody. […] Proteins in total lysate were detected by anti-Flag and anti-HA monoclonal antibody, respectively. […]

T1 sequence (Q9HC29 whole entry): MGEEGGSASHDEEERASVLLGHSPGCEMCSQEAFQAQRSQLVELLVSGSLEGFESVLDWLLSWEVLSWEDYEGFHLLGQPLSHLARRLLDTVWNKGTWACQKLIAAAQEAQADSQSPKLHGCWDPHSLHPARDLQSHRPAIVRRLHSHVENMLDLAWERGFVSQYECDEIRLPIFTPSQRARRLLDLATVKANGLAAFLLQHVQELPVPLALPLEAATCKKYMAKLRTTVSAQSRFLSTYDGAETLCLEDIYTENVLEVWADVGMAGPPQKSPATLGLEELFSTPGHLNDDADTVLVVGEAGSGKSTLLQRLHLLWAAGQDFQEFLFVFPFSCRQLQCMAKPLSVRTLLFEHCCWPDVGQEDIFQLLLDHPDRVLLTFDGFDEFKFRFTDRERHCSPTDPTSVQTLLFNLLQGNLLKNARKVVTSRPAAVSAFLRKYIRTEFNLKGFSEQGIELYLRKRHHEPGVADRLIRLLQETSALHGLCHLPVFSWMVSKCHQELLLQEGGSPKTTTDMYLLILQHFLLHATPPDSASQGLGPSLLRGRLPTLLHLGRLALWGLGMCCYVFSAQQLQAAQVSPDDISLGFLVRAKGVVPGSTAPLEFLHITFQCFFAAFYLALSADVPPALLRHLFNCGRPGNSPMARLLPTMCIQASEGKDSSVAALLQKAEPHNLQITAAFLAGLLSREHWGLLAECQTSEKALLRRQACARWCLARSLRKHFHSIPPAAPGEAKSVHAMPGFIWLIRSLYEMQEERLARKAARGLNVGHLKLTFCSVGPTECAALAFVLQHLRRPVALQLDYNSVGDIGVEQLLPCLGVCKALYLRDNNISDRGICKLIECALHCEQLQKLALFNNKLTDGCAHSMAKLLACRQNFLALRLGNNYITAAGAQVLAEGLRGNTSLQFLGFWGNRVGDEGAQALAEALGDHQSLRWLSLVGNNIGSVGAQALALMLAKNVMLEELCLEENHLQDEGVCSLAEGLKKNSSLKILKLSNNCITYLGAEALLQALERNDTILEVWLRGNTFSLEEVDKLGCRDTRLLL

Binder	binding result
TRAF-1 (other, UniProt Q13077 1-416, looked up, Construct and tag not described) MASSSGSSPRPAPDENEFPFGCPPTVCQDPKEPRALCCAGCLSENPRNGEDQICPKCRGEDLQSISPGSRLRTQEKAHPEVAEAGIGCPFAGVGCSFKGSPQSVQEHEVTSQTSHLNLLLGFMKQWKARLGCGLESGPMALEQNLSDLQLQAAVEVAGDLEVDCYRAPCSESQEELALQHFMKEKLLAELEGKLRVFENIVAVLNKEVEASHLALATSIHQSQLDRERILSLEQRVVELQQTLAQKDQALGKLEQSLRLMEEASFDGTFLWKITNVTRRCHESACGRTVSLFSPAFYTAKYGYKLCLRLYLNGDGTGKRTHLSLFIVIMRGEYDALLPWPFRNKVTFMLLDQNNREHAIDAFRPDLSSASFQRPQSETNVASGCPLFFPLSKLQSPKHAYVKDDTMFLKCIVETST	no binding
Ced-4 (other, UniProt P30429 1-549, looked up, Construct and tag not described) MLCEIECRALSTAHTRLIHDFEPRDALTYLEGKNIFTEDHSELISKMSTRLERIANFLRIYRRQASELGPLIDFFNYNNQSHLADFLEDYIDFAINEPDLLRPVVIAPQFSRQMLDRKLLLGNVPKQMTCYIREYHVDRVIKKLDEMCDLDSFFLFLHGRAGSGKSVIASQALSKSDQLIGINYDSIVWLKDSGTAPKSTFDLFTDILLMLKSEDDLLNFPSVEHVTSVVLKRMICNALIDRPNTLFVFDDVVQEETIRWAQELRLRCLVTTRDVEISNAASQTCEFIEVTSLEIDECYDFLEAYGMPMPVGEKEEDVLNKTIELSSGNPATLMMFFKSCEPKTFEKMAQLNNKLESRGLVGVECITPYSYKSLAMALQRCVEVLSDEDRSALAFAVVMPPGVDIPVKLWSCVIPVDICSNEEEQLDDEVADRLKRLSKRGALLSGKRMPVLTFKIDHIIHMFLKHVVDAQTIANGISILEQRLLEIGNNNVSVPERHIPSHFQKFRRSSASEMYPKTTEETVIRPEDFPKFMQLHQKFYDSLKNFACC	no binding
TRAF-2 (other, UniProt Q12933 1-501, looked up, Construct and tag not described) MAAASVTPPGSLELLQPGFSKTLLGTKLEAKYLCSACRNVLRRPFQAQCGHRYCSFCLASILSSGPQNCAACVHEGIYEEGISILESSSAFPDNAARREVESLPAVCPSDGCTWKGTLKEYESCHEGRCPLMLTECPACKGLVRLGEKERHLEHECPERSLSCRHCRAPCCGADVKAHHEVCPKFPLTCDGCGKKKIPREKFQDHVKTCGKCRVPCRFHAIGCLETVEGEKQQEHEVQWLREHLAMLLSSVLEAKPLLGDQSHAGSELLQRCESLEKKTATFENIVCVLNREVERVAMTAEACSRQHRLDQDKIEALSSKVQQLERSIGLKDLAMADLEQKVLEMEASTYDGVFIWKISDFARKRQEAVAGRIPAIFSPAFYTSRYGYKMCLRIYLNGDGTGRGTHLSLFFVVMKGPNDALLRWPFNQKVTLMLLDQNNREHVIDAFRPDVTSSSFQRPVNDMNIASGCPLFCPVSKMEAKNSYVRDDAIFIKAIVDLTGL	no binding
RIP (enzyme, UniProt Q13546 1-671, looked up, Construct and tag not described) MQPDMSLNVIKMKSSDFLESAELDSGGFGKVSLCFHRTQGLMIMKTVYKGPNCIEHNEALLEEAKMMNRLRHSRVVKLLGVIIEEGKYSLVMEYMEKGNLMHVLKAEMSTPLSVKGRIILEIIEGMCYLHGKGVIHKDLKPENILVDNDFHIKIADLGLASFKMWSKLNNEEHNELREVDGTAKKNGGTLYYMAPEHLNDVNAKPTEKSDVYSFAVVLWAIFANKEPYENAICEQQLIMCIKSGNRPDVDDITEYCPREIISLMKLCWEANPEARPTFPGIEEKFRPFYLSQLEESVEEDVKSLKKEYSNENAVVKRMQSLQLDCVAVPSSRSNSATEQPGSLHSSQGLGMGPVEESWFAPSLEHPQEENEPSLQSKLQDEANYHLYGSRMDRQTKQQPRQNVAYNREEERRRRVSHDPFAQQRPYENFQNTEGKGTAYSSAASHGNAVHQPSGLTSQPQVLYQNNGLYSSHGFGTRPLDPGTAGPRVWYRPIPSHMPSLHNIPVPETNYLGNTPTMPFSSLPPTDESIKYTIYNSTGIQIGAYNYMEIGGTSSSLLDSTNTNFKEEPAAKYQAIFDNTTSLTDKHLDPIRENLGKHWKNCARKLGFTQSQIDEIDHDYERDGLKEKVYQMLQKWVMREGIKGATVGKLAQALHQCSRIDLLSSLIYVSQN	no binding
TRADD (other, UniProt Q15628 1-312, looked up, Construct and tag not described) MAAGQNGHEEWVGSAYLFVESSLDKVVLSDAYAHPQQKVAVYRALQAALAESGGSPDVLQMLKIHRSDPQLIVQLRFCGRQPCGRFLRAYREGALRAALQRSLAAALAQHSVPLQLELRAGAERLDALLADEERCLSCILAQQPDRLRDEELAELEDALRNLKCGSGARGGDGEVASAPLQPPVPSLSEVKPPPPPPPAQTFLFQGQPVVNRPLSLKDQQTFARSVGLKWRKVGRSLQRGCRALRDPALDSLAYEYEREGLYEQAFQLLRRFVQAEGRRATLQRLVEALEENELTSLAEDLLGLTDPNGGLA	no binding
IKKα (enzyme, UniProt O15111 1-745, looked up, Construct and tag not described for this test) MERPPGLRPGAGGPWEMRERLGTGGFGNVCLYQHRELDLKIAIKSCRLELSTKNRERWCHEIQIMKKLNHANVVKACDVPEELNILIHDVPLLAMEYCSGGDLRKLLNKPENCCGLKESQILSLLSDIGSGIRYLHENKIIHRDLKPENIVLQDVGGKIIHKIIDLGYAKDVDQGSLCTSFVGTLQYLAPELFENKPYTATVDYWSFGTMVFECIAGYRPFLHHLQPFTWHEKIKKKDPKCIFACEEMSGEVRFSSHLPQPNSLCSLVVEPMENWLQLMLNWDPQQRGGPVDLTLKQPRCFVLMDHILNLKIVHILNMTSAKIISFLLPPDESLHSLQSRIERETGINTGSQELLSETGISLDPRKPASQCVLDGVRGCDSYMVYLFDKSKTVYEGPFASRSLSDCVNYIVQDSKIQLPIIQLRKVWAEAVHYVSGLKEDYSRLFQGQRAAMLSLLRYNANLTKMKNTLISASQQLKAKLEFFHKSIQLDLERYSEQMTYGISSEKMLKAWKEMEEKAIHYAEVGVIGYLEDQIMSLHAEIMELQKSPYGRRQGDLMESLEQRAIDLYKQLKHRPSDHSYSDSTEMVKIIVHTVQSQDRVLKELFGHLSKLLGCKQKIIDLLPKVEVALSNIKEADNTVMFMQGKRQKEIWHLLKIACTQSSARSLVGSSLEGAVTPQTSAWLPPTSAEHDHSLSCVVTPQDGETSAQMIEENLNCLGHLSTIIHEANEEQGNSMMNLDWSWLTE	no binding
RICKΔCARD (residues 1-374), Flag-tagged (other, not shown: small tags and cut ends, also called pcDNA3-Flag-RICK(1-374)) MNGEAICSALPTIPYHKLADLRYLSRGASGTVSSARHADWRVQVAVKHLHIHTPLLDSERKDVLREAEILHKARFSYILPILGICNEPEFLGIVTEYMPNGSLNELLHRKTEYPDVAWPLRFRILHEIALGVNYLHNMTPPLLHHDLKTQNILLDNEFHVKIADFGLSKWRMMSLSQSRSSKSAPEGGTIIYMPPENYEPGQKSRASIKHDIYSYAVITWEVLSRKQPFEDVTNPLQIMYSVSQGHRPVINEESLPYDIPHRARMISLIESGWAQNPDERPSFLKCLIELEPVLRTFEEITFLEAVIQLKKTKLQSVSSAIHLCDKKKMELSLNIPVNHGPQEESCGSSQLHENSGSPETSRSLPAPQDNDFLS	no binding
